Test results from patent US20120264231A1, “ASSAY FOR ORAI CALCIUM CHANNEL REGULATORS” (IMMUNE DISEASE INSTITUTE, INC., priority 2009, published 2012).

Key:
ORAI1 = ORAI1 (Homo sapiens, UniProt Q96D31); experiment: Cameleon D3 cpV/D4 cpV intravesicular Ca^2+ assay, sec6-4 vesicles with ORAI1; format: biochemical; set-up: the ORAI functional fragment is ORAI1 (65-301), ORAI1 (65-87), or full length ORAI1; made in house; host or cells: S. cerevisiae NY17 (sec6-4), isolated secretory vesicles, vector pBEVY-GU
Chain of ORAI1 (Q96D31 2-301): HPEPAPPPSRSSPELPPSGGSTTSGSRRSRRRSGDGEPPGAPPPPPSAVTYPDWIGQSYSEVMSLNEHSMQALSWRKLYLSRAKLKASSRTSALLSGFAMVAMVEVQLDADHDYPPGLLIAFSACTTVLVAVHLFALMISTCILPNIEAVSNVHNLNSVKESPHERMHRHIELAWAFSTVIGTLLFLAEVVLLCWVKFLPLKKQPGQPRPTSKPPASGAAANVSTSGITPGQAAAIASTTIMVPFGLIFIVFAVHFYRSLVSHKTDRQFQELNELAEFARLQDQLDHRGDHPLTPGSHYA
Procedure: In complementary measurements, vesicular Ca^2+ was monitored directly by coexpressing ORAI1 with the Ca^2+ sensor D3 cpV or D4 cpV53 fused to the α-mating factor secretion signal to target the sensor to the vesicles. Vesicles that had incorporated ORAI1 were isolated from sec6-4 yeast incubated at the restrictive temperature and were diluted into assay buffer.
Vesicles carrying ORAI 1 were isolated from S cerevisiae strain NY1 7 according to a standard protocol (Coury, L. A., et al., Methods Enzymol 306, 169-186 (1999); Nakamoto, R. K., et al., J Biol Chem 266, 7940-7949 (1991)). Efflux of Ca^2+ elicited by STIM1^CT fragments was detected by suspending the vesicles in a buffer containing Fura-2 as principal Ca^2+ buffer, and monitoring the Fura-2 fluorescence excitation spectrum (Meyer, T., et al., Biochemistry 29, 32-37 (1990)). As a complementary approach, ORAI 1 was coexpressed with a Ca^2+ sensor cameleon D3 cpV or cameleon D4 cpV53 that was targeted to the vesicles, and changes in intravesicular [Ca^2+] were detected as changes in FRET between CFP and YFP of the sensor.
The yeast expression vector pBEVY-GU60 allows for simultaneous expression of two transgenes by means of the bidirectional GAL1-10 promoter. The FRET-based calcium sensors D3 cpV and D4 cpV53 were fused at the N-terminus with the S. cerevisiae α-mating factor secretion signal (Bitter, G. A., et al., Proc Natl Acad Sci USA 81, 5330-5334 (1984)), which directs proteins into the secretory pathway, and introduced into pBEVY-GU in the following way. Vector pPIC9 (Invitrogen) served as template for PCR amplification of the α-mating factor secretion signal (5′ primer: […] (SEQ ID NO: 2); 3′ primer: […] (SEQ ID NO: 3)), introducing an EcoRI site at the 5′ end, and a sequence complementary to that encoding the N-terminus of the calcium sensor at the 3′ end. DNA encoding the N-terminal portion of the calcium sensor D3 cpV, comprising CFP, was amplified by PCR (5′ primer: […] (SEQ ID NO: 4); 3′ primer: […] (SEQ ID NO: 5)), introducing an SphI site followed by a stop codon and a NotI site at the 3′ end of the resulting DNA fragment. PCR-mediated fusion of the fragments representing the α-mating factor secretion signal and the sensor CFP fragment yielded αCFP, which was digested with EcoRI and NotI and subcloned into pSM703. […] Human ORAI1 was Myc-tagged at the N-terminus by PCR (5′ primer: […] (SEQ ID NO: 6); 3′ primer: […] TGGCTGCCGGGC (SEQ ID NO: 7)) and subcloned as an EcoRI-BamHI fragment into pSM703. A fragment containing Myc-ORAI1 was excised from the resulting plasmid by EcoRI digestion, blunt-ended with the Klenow fragment of DNA polymerase I, and cut with AvrII. […]

CD thermal unfolding = format: physicochemical; settings: CD signal at 222 nm, 20 μM protein, pH 7.5
Procedure: CD spectra of STIM 1^CT fragments were recorded in a Jasco-810 spectropolarimeter at 25° C. using a 1-mm path length quartz cell with the protein concentration at 20 μM in 10 mM Tris-HCl, 150 mM KCl, 1 mM DTT at pH 7.5. All spectra were obtained as the average of at least ten scans with a scan rate of 50 nm/min. The ellipticity was measured from 190 to 260 nm and converted to mean residue molar ellipticity (deg cm^2 dmol^−1 res^−1). The calculation of secondary structure elements was performed by using DICHROWEB, an online server for protein secondary structure analyses (Whitmore, L. & Wallace, B. A. Nucleic Acids Res 32, W668-W673 (2004)). Thermal unfolding measurements were performed using a 1 mm quartz cell with a protein concentration of 20 μM in the same buffer. To obtain the thermal transition point, the signal changes at 222 nm were fitted using the equation: ΔS=ΔSmax/[…]), where ΔS and ΔSmax are the signal changes at each data point and at the final data point, Tm and T are the transition temperature and experimental temperature, respectively, and k represents the transition rate.

[1] = STIM 1 cytoplasmic fragments 2 μM

| Molecule | vesicular Ca^2+ (cameleon FRET signal) (ORAI1; ionomycin 20 μM) | Tm (thermal unfolding) (CD thermal unfolding) [°C] | vesicular Ca^2+ (cameleon FRET signal) (ORAI1; [1]) | fluorescence intensity ratio F528 nm/F475 nm (ORAI1; D3 cpV sensor, wildtype ORAI1, STIM^CT 2.6 μM, p<0.001) |
| --- | --- | --- | --- | --- |
| C[C@H](CCC(=O)O)C[C@H](C)C[C@H](C)C(=O)/C=C(\O)[C@H](C)C[C@H](C)C/C=C/[C@@H](C)[C@@H](O)[C@@H](C)[C@@H](O)C[C@@H]1CC[C@@](C)([C@H]2CC[C@@](C)([C@@H](C)O)O2)O1 [ionomycin, reference compound] | depletion of vesicular Ca^2+ |  |  |  |
| STIM1 (233-463): truncated mouse STIM1 cytoplasmic fragment, residues 233-463, His-tagged recombinant protein |  | 43.8±0.2 |  |  |
| STIM1 (233-498): truncated mouse STIM1 cytoplasmic fragment, residues 233-498, His-tagged recombinant protein |  | 48.5±0.4 | triggered substantial loss of vesicular Ca^2+ |  |
| STIM1^CT: cytoplasmic region of STIM1, mouse residues 233-685, His-tagged recombinant protein expressed in E coli |  | 47.0±0.3 | triggered substantial loss of vesicular Ca^2+ | changes the ratio significantly |
